T1: recombinant human C1r2s2 tetramer (human, UniProt P09871 16-688; P00736 18-705)
T1 construct: C1s and C1r co-expressed in HEK293/FreeStyle 293-F and purified from conditioned medium
T1 chain 1: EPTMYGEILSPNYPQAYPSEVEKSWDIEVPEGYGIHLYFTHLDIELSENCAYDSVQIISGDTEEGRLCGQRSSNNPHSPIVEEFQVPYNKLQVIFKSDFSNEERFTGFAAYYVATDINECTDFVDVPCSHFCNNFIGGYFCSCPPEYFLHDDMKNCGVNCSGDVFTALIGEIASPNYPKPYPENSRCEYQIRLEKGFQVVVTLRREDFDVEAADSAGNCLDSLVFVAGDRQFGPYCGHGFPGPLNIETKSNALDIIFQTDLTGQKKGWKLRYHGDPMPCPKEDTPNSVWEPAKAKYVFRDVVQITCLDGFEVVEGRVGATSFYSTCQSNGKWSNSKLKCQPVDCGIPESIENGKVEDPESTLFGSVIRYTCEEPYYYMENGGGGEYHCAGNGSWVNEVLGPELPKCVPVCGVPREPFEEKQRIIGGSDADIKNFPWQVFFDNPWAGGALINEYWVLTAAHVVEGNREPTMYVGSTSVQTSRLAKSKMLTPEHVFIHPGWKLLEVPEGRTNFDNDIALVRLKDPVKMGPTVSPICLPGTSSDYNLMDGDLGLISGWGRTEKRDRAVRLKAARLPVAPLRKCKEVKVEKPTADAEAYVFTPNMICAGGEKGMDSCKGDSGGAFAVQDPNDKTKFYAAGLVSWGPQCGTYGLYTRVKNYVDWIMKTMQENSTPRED
T1 chain 2: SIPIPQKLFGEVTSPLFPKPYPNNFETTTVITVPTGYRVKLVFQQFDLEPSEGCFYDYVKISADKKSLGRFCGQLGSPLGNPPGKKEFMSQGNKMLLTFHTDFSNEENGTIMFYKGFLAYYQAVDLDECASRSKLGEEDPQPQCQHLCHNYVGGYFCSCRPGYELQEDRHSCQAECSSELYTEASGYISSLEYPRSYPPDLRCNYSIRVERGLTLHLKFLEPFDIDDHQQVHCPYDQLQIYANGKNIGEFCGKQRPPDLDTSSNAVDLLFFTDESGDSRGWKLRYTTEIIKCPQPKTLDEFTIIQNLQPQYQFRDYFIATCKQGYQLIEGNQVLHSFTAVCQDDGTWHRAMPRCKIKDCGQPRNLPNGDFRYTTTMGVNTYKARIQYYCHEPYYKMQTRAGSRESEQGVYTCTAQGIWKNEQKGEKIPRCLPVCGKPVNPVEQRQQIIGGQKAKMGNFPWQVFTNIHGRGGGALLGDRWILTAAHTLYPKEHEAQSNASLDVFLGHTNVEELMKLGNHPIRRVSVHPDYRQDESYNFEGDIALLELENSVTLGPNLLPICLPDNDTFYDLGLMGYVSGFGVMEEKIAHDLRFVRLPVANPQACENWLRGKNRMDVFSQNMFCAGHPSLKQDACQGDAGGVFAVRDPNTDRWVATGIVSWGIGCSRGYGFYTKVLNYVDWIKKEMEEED


Tests used:
[1] = biological target: T1, recombinant human C1r2s2 tetramer; test: SPR (BIACORE), antibody captured by ProL, human C1r2s2 injected at 100 nM, pH 7.4, 37 C; y axis Response/Capture
Protocol: Analysis of interaction between antibody variants and the human C1r2s2 prepared as mentioned above was carried out at pH7.4, at 37 degrees C. using BIACORE® T200 instrument (GE Healthcare) or BIACORE® 4000 (GE Healthcare). ProL (BioVision) was immobilized onto a CM4 sensorchip using amine coupling kit (GE Healthcare) according to the recommended settings by GE Healthcare. Antibodies and analytes were diluted into the respective running buffers, ACES pH7.4 (20 mM ACES (N-(2-Acetamido)-2-aminoethanesulfonic acid), 150 mM NaCl, 1.2 mM CaCl2, 1 mg/ml bovine serum albumin (BSA), 1 mg/ml CMD (CM-Dextran sodium salt), 0.05% Tween® 20 (polysorbate 20), 0.005 w/v % NaN3). Each antibody was captured onto the sensor surface by ProL. Antibody capture levels were aimed at 200 resonance units (RU). Then, recombinant human C1r2s2 was injected at concentrations of 25 and 100 nM followed by dissociation at pH7.4. The surface was regenerated using 10 mM Glycine-HCl, pH1.5.

[2] = biological target: T1, recombinant human C1r2s2 tetramer; test: SPR (BIACORE T200), 37 C, ratio of KD at pH 5.8 to KD at pH 7.4
Protocol: (§1) KD (dissociation constant) value of each samples at pH 7.4 and pH 5.8 are determined at 37 degrees C. using BIACORE® T200 instrument (GE Healthcare). Purified Mouse Anti-Human Ig kappa Light Chain (GE Healthcare) can be immobilized onto all flow cells of a CMS sensor chip using an amine coupling kit (GE Healthcare). 20 mM ACES, 150 mM NaCl, 1.2 mM CaCl2, 1 mg/mL BSA (IgG-free), 1 mg/mL CMD, 0.05% Tween® 20, 0.005% NaN3, pH 7.4 or pH 5.8 buffer were used as running buffer. Each antibody can be captured onto the sensor surface by Anti-Human Ig kappa Light chain. Antibody capture levels are aimed at 50 resonance unit (RU). […] Sensor surface is regenerated each cycle with, e.g., Glycine pH 2.0 (GE Healthcare). KD values were obtained using BIACORE® T200 Evaluation software, version 2.0 (GE Healthcare).

[3] = biological target: T1, recombinant human C1r2s2 tetramer; test: SPR (BIACORE T200), 37 C, Ab captured via anti-human Ig kappa, human C1r2s2 as analyte, pH 7.4
Protocol: as §1

[4] = biological target: T1, recombinant human C1r2s2 tetramer; test: SPR (BIACORE T200), 37 C, Ab captured via anti-human Ig kappa, human C1r2s2 as analyte, pH 5.8
Protocol: as §1

Binder | binding result [1] | KD (pH 5.8)/KD (pH 7.4) [2] | Kd [3] | Kd [4]
COS0637pHv8-TT91R (antibody, V domains shown) VH: QVQLVESGGGVVQPGRSLRLSCAASGFTFSAYAMNWIRQPPGKGLEWIGLIYGSGHEFYASWAEERVTISVDTSKNQFSLKLSSVTAADTAVYYCARGRSKNYNSDFHLWGQGTLVTVSS VL: DIQMTQSPSSLSASVGDRVTITCQANQILHDKKNLAWYQQKPGQPPKLLIYGASTLESGVPSRFSGSGSGTDFTLTISSLQPEDFATYYCHGEFSYSSADLNTFGQGTKVEIKR |  | 117 | 7.46 nM | 874 nM
COS0637pHv4-TT91R (antibody, V domains shown) VH: QVQLVESGGGVVQPGRSLRLSCAASGFSFSAYAMNWIRQPPGKGLEWIGLIYGSGHEFYASWAEERVTISVDTSKNQFSLKLSSVTAADTAVYYCARGRSKNYVSGFHLWGQGTLVTVSS VL: DIQMTQSPSSLSASVGDRVTITCQASQILHDKKNLAWYQQKPGQPPKLLIYQASQLESGVPSRFSGSGSGTDFTLTISSLQPEDFATYYCHGEFSYESADLNQFGQGTKVEIKR |  | 99 | 8.23 nM | 811 nM
COS0637temp-TT91R (antibody, COS0637h with K101H in HCDR3; CH TT91R, CL SK1) heavy: QVQLVESGGGVVQPGRSLRLSCAASGFTFSAYAMNWIRQPPGKGLEWIGLIYGSGSTFYASWAKGRVTISVDTSKNQFSLKLSSVTAADTAVYYCARGRSVNYNSDFHLWGQGTLVTVSSASTKGPSVFPLAPSSKSTSGGTAALGCLVKDYFPEPVTVSWNSGALTSGVHTFPAVLQSSGLYSLSSVVTVPSSSLGTQTYICNVNHKPSNTKVDKRVEPKSCDKTHTCPPCPAPEYLGGDSVFLFPPKPKDVLMISRTPEVTCVVIDVSHEDPEVKFNWYVDGVEVHNAKTKPREEQYNSTYRVVSVLPVLHRDWLNGKEYKCKVSNKALPKPIEKTISKAKGQRREPQVYTLPPSREEMTKNQVSLTCLVKGFYPSDIAVEWESNGQPENNYKTTPPVLDSDGSFFLYSKLTVDKSRWQQGNVFSCSVLHEALHAHTTRKELSLSP light: DIQMTQSPSSLSASVGDRVTITCQASQSLHDKKNLAWYQQKPGQPPKLLIYGASTLESGVPSRFSGSGSGTDFTLTISSLQPEDFATYYCQGEFSCSSADCNTFGQGTKVEIKRTVAAPSVFIFPPSDEQLKSGTASVVCLLNNFYPREAKVQWKVDNALQSGNSQESVTEQDSKDSTYSLSSTLTLSKADYEKHKVYACEVTHQGLSSPVTKSFNRGEC |  | 116 | 55 nM | 6390 nM
COS0637pHv9-TT91R (antibody, V domains shown) VH: QVQLVESGGGVVQPGRSLRLSCAASGFTFSAYAMNWIRQPPGKGLEWIGLIYGSGHEFYASWAEERVTISVDTSKNQFSLKLSSVTAADTAVYYCARGRSKNYNSDFHLWGQGTLVTVSS VL: DIQMTQSPSSLSASVGDRVTITCQANQILHDKKNLAWYQQKPGQPPKLLIYQASQRESGVPSRFSGSGSGTDFTLTISSLQPEDFATYYCHGEFPYESADLNTFGQGTKVEIKR |  | 45 | 3.48 nM | 157 nM
AL0744 (antibody, human IgG1, kappa, V domains shown, COS0637temp with VL C94W/C95dM (Kabat), already in the VL entry) VH: QVQLVESGGGVVQPGRSLRLSCAASGFTFSAYAMNWIRQPPGKGLEWIGLIYGSGSTFYASWAKGRVTISVDTSKNQFSLKLSSVTAADTAVYYCARGRSVNYNSDFHLWGQGTLVTVSS VL: DIQMTQSPSSLSASVGDRVTITCQASQSLHDKKNLAWYQQKPGQPPKLLIYGASTLESGVPSRFSGSGSGTDFTLTISSLQPEDFATYYCQGEFSWSSADMNTFGQGTKVEIKR | binds |  |  | 

The remaining lines, values ahead:

binding result [1] | KD (pH 5.8)/KD (pH 7.4) [2] | Kd [3] | Kd [4] | Binder
binds |  |  |  | AL0737 (antibody, human IgG1, kappa, V domains shown, COS0637temp with VL C94W/C95dL (Kabat), already in the VL entry) VH: QVQLVESGGGVVQPGRSLRLSCAASGFTFSAYAMNWIRQPPGKGLEWIGLIYGSGSTFYASWAKGRVTISVDTSKNQFSLKLSSVTAADTAVYYCARGRSVNYNSDFHLWGQGTLVTVSS VL: DIQMTQSPSSLSASVGDRVTITCQASQSLHDKKNLAWYQQKPGQPPKLLIYGASTLESGVPSRFSGSGSGTDFTLTISSLQPEDFATYYCQGEFSWSSADLNTFGQGTKVEIKR
binds |  |  |  | AL0743 (antibody, human IgG1, kappa, V domains shown, COS0637temp with VL C94Y/C95dL (Kabat), already in the VL entry; template for further optimization) VH: QVQLVESGGGVVQPGRSLRLSCAASGFTFSAYAMNWIRQPPGKGLEWIGLIYGSGSTFYASWAKGRVTISVDTSKNQFSLKLSSVTAADTAVYYCARGRSVNYNSDFHLWGQGTLVTVSS VL: DIQMTQSPSSLSASVGDRVTITCQASQSLHDKKNLAWYQQKPGQPPKLLIYGASTLESGVPSRFSGSGSGTDFTLTISSLQPEDFATYYCQGEFSYSSADLNTFGQGTKVEIKR
 | 100 | 8.39 nM | 838 nM | COS0637pHv6-TT91R (antibody, V domains shown) VH: QVQLVESGGGVVQPGRSLRLSCAASGFSFSAYAMNWIRQPPGKGLEWIGLIYGSGHEFYASWAEERVTISVDTSKNQFSLKLSSVTAADTAVYYCARGRSKNYVSGFHLWGQGTLVTVSS VL: DIQMTQSPSSLSASVGDRVTITCQAQQILHDKRNLAWYQQKPGQPPKLLIYQASQLESGVPSRFSGSGSGTDFTLTISSLQPEDFATYYCHGEFSYESADLNTFGQGTKVEIKR

— patent US20240092889A1 (Chugai, published 2024)
